Test results from patent CN113045656A (TAIZHOU ENZE MEDICAL CT GROUP, dated 2021).

Target: T1, G5-pep2(299-319aa) 抗原肽 (human)
T1 peptide: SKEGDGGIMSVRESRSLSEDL
Test: indirect ELISA, peptide coated at 2 ug/ml, purified antibody in 2-fold dilutions from 1:200, logistic fit

B1: 抗HLA-G异构体分子HLA-G5及HLA-G6的单克隆抗体(9Y5G6) (antibody, V domains shown)
VH: VQLQESGGGLVQPGGSRKLSCAASGFTFRDFGMAWVRQVPGMGPEWVASISNLARIIDYADTVTGRFTISRENAKNTLYLEMNSLRSEDSAIYYCARVTTIVPDYWGQGTSLTVSS
VL: DIVITQDELSLPVSLGDHTSISCRSSQSLLHSNGHTYLHWYLQKPGQSPKLLIYKVSNRFSGVPDRFSGSGSGTDFTLKISRVEAEDLGVYFCSQSTHVPWTFGGGTKVEIKR
notes: only the CDRs are; also called 抗HLA-G单克隆抗体(9Y5G6)
- Ka: 1.5e+11 M⁻¹
- X0 (midpoint of the logistic fit, antibody dilution factor): 1.56e+06 dilution fold
